Source: PMC10924461, “Structure and ligand binding in the putative anti-microbial peptide transporter protein, YejA” (Microbiology, 2024)

Experiments:
[1] = target: T1, YejA, periplasmic solute-binding protein of the YejABEF ABC transporter from E. coli (E. coli K12, UniProt P33913 20-604); test: thermal shift assay (SYPRO orange); 0.5 mg ml^-1 (7.3 µM) YejA, 5x SYPRO orange, 25 µl, 25-96 °C in 1 °C/30 s steps; synthetic peptides added; a shift greater than 3 °C taken as significant; settings: both partners purified
T1 construct: YejA, E. coli K12, residues 1-585 (Gln1-Glu585) of the mature protein, without the signal peptide; numbers count on: the mature protein; also called EcYejA; recombinant YejA; source: E. coli BL21 (DE3) with pBKA101, purified (HisTrap, HRV 3C cleavage, S200 SEC); not shown: His6, C-terminal, cleaved
T1 sequence (looked up): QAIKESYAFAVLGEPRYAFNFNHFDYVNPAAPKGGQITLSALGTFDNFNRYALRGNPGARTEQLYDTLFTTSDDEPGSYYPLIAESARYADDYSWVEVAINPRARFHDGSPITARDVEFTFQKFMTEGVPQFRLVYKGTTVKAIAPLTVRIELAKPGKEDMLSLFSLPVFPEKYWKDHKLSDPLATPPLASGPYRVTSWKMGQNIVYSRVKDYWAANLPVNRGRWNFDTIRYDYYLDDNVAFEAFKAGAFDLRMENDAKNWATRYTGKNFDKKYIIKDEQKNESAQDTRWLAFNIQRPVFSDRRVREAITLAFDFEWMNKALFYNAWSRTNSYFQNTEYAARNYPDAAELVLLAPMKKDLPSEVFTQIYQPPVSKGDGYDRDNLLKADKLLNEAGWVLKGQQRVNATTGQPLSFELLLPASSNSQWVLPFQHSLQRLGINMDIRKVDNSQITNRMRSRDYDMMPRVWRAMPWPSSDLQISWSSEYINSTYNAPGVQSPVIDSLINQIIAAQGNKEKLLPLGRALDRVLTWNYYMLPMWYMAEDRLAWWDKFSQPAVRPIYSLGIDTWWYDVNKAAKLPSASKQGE

[2] = target: T1, YejA, periplasmic solute-binding …; test: as above; settings: both partners purified; remark: listed apart in the source

B1: GEPRYAFNFN (peptide)
peptide: GEPRYAFNFN
notes: YejA, E. coli, stretch of the N-terminal segment; numbers count on: the mature protein; source: synthetic peptide
- melting temp. change with 2.5 mg ml^-1 (2.06 mM) peptide [1]: 14 °C

B2: VLGEPRYAFNFNHFD (peptide)
peptide: VLGEPRYAFNFNHFD
notes: YejA, E. coli, stretch of the N-terminal segment; numbers count on: the mature protein; also called 15-mer; source: co-purified with recombinant YejA (self-derived); synthetic peptide
- melting temp. change with 2.5 mg ml^-1 (1.37 mM) peptide [1]: 26 °C

B3: LGEPRYAFN (peptide)
peptide: LGEPRYAFN
notes: as for B1
- melting temp. change with 1.25 mg ml^-1 (1.17 mM) peptide [1]: 17 °C

B4: VLGEPRYAFNFN (peptide)
peptide: VLGEPRYAFNFN
notes: YejA, E. coli, stretch of the N-terminal segment; numbers count on: the mature protein; also called dodecapeptide; 12-mer; source: co-purified with recombinant YejA (self-derived); synthetic peptide
- melting temp. change with 2.5 mg ml^-1 (1.75 mM) peptide [1]: 21 °C

B5: LGEPRYAFNFN (peptide)
peptide: LGEPRYAFNFN
notes: YejA, E. coli, residues 12-22 of the N-terminal segment; numbers count on: the mature protein; also called undecapeptide; 11-mer; source: co-purified and co-crystallised with recombinant YejA (self-derived); synthetic peptide
- melting temp. change with 0.75 mg ml^-1 (0.56 mM) peptide [1]: 13 °C
- Tm of YejA with 0.005 mg ml^-1 peptide (60.8 °C without peptide) [2]: 62.6 °C
- Tm of YejA with 0.05 mg ml^-1 peptide (60.8 °C without peptide) [2]: 67.5 °C

B6: LGEPRWAFNFN (peptide)
peptide: LGEPRWAFNFN
notes: numbers count on: the peptide (Leu1 = residue 12 of mature YejA); also called Trp-containing peptide; Trp6 containing peptide; source: synthetic peptide
- melting temp. change with 2.5 mg ml^-1 (1.85 mM) peptide [1]: 22 °C

B7: LGEPAYAFNFN (peptide)
peptide: LGEPAYAFNFN
notes: numbers count on: the peptide (Leu1 = residue 12 of mature YejA); source: synthetic peptide
- melting temp. change with 2.5 mg ml^-1 (2.01 mM) peptide [1]: 7 °C

B8: VLGEPRYAFNF (peptide)
peptide: VLGEPRYAFNF
notes: YejA, E. coli, stretch of the N-terminal segment; numbers count on: the mature protein; source: co-purified with recombinant YejA (self-derived); synthetic peptide
- melting temp. change with 2.5 mg ml^-1 (1.9 mM) peptide [1]: 22 °C

B9: LGEPRYAFNF (peptide)
peptide: LGEPRYAFNF
notes: as for B1
- melting temp. change with 2.5 mg ml^-1 (2.06 mM) peptide [1]: 20 °C

B10: EPRYAFNFN (peptide)
peptide: EPRYAFNFN
notes: as for B1
- melting temp. change with 2.5 mg ml^-1 (2.16 mM) peptide [1]: 8 °C

B11: FAVLGEPRYAFN (peptide)
peptide: FAVLGEPRYAFN
notes: as for B8
- melting temp. change with 5 mg ml^-1 (3.61 mM) peptide [1]: 19 °C
